Results as given in US20160311917A1 (Novartis, published 2016).

Molecular target: T1, recombinant human biotinylated mesothelin extracellular domain with C-terminal Avi-Tag (human, site selectively biotinylated in vitro with BirA enzyme at the C-terminal Avi-Tag)
T1 construct: Produced in HEK293F cells; as printed it includes a His tag and the Avi-Tag; Immobilised on a streptavidin sensor chip for SPR; also called human MSLN ECD; human mesothelin ECD
T1 chain: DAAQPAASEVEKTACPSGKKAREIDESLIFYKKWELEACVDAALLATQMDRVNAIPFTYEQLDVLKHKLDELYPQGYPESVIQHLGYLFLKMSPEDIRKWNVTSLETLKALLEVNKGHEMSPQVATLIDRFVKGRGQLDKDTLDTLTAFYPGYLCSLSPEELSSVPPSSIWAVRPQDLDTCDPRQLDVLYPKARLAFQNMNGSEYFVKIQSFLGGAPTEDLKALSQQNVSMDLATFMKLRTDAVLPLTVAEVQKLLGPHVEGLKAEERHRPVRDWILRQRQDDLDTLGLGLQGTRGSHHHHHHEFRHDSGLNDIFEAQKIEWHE
Experiment: SPR, Biacore T200; biotinylated mesothelin ECD on streptavidin chip, scFv injected; 1:1 binding model
Method: (§1) Binding affinity of purified scFvs was measured on a Biacore T200 system. Briefly, recombinant human biotinylated mesothelin ECD was immobilized on a streptavidin (SA) sensor chip surface at a density of 150 RU. Purified scFv was injected over the chip under constant flow rate at three-fold serial dilutions. Association and dissociation rates of the protein complex were monitored for 270 seconds and 400 seconds, respectively. Double referencing was performed against a blank immobilized flow cell and a buffer blank. Affinity was determined with a Langmuir 1:1 binding model when possible, for those scFVs where accurate fitting was not possible due to fast on and off rates, the steady state model was used.

Row | Binder | Kd [nM] | koff [s⁻¹] | kon [M⁻¹ s⁻¹]
1 | M14 scFv (human anti-mesothelin scFv, soluble, His-tagged) (scFv, also called BS83-95ID) scFv: QVQLVQSGAEVRAPGASVKISCKASGFTFRGYYIHWVRQAPGQGLEWMGIINPSGGSRAYAQKFQGRVTMTRDTSTSTVYMELSSLRSDDTAMYYCARTASCGGDCYYLDYWGQGTLVTVSSGGGGSGGGGSGGGGSGGGGSDIQMTQSPPTLSASVGDRVTITCRASENVNIWLAWYQQKPGKAPKLLIYKSSSLASGVPSRFSGSGSGAEFTLTISSLQPDDFATYYCQQYQSYPLTFGGGTKVDIKGSHHHHHHHH | 0.9 | 0.00251 | 2.75e+06
2 | M5 scFv (human anti-mesothelin scFv, soluble, His-tagged) (scFv, also called scFv M5; XP31-20LC) scFv: QVQLVQSGAEVEKPGASVKVSCKASGYTFTDYYMHWVRQAPGQGLEWMGWINPNSGGTNYAQKFQGRVTMTRDTSISTAYMELSRLRSDDTAVYYCASGWDFDYWGQGTLVTVSSGGGGSGGGGSGGGGSGGGGSDIVMTQSPSSLSASVGDRVTITCRASQSIRYYLSWYQQKPGKAPKLLIYTASILQNGVPSRFSGSGSGTDFTLTISSLQPEDFATYYCLQTYTTPDFGPGTKVEIKGSHHHHHHHH | 26.9 | 0.00113 | 42000
3 | M16 scFv (human anti-mesothelin scFv, soluble, His-tagged) (scFv, also called XS87-99RD) scFv: EVQLVESGGGLVQPGRSLRLSCAASGFTFDDYAMHWVRQAPGKGLEWVSGISWNSGSTGYADSVKGRFTISRDNAKNSLYLQMNSLRAEDTALYYCAKDSSSWYGGGSAFDIWGQGTMVTVSSGGGGSGGGGSGGGGSSSELTQEPAVSVALGQTVRITCQGDSLRSYYASWYQQKPGQAPVLVIFGRSRRPSGIPDRFSGSSSGNTASLIITGAQAEDEADYYCNSRDNTANHYVFGTGTKLTVLGSHHHHHHHH | 22.7 | 0.00395 | 174000
4 | M17 scFv (human anti-mesothelin scFv, soluble, His-tagged) (scFv, also called NS89-94MD) scFv: EVQLVESGGGLVQPGRSLRLSCAASGFTFDDYAMHWVRQAPGKGLEWVSGISWNSGSTGYADSVKGRFTISRDNAKNSLYLQMNSLRAEDTALYYCAKDSSSWYGGGSAFDIWGQGTMVTVSSGGGGSGGGGSGGGGSSSELTQDPAVSVALGQTVRITCQGDSLRSYYASWYQQKPGQAPVLVIYGKNNRPSGIPDRFSGSSSGNTASLTITGAQAEDEADYYCNSRGSSGNHYVFGTGTKVTVLGSHHHHHHHH | 27.8 | 0.0145 | 522000

Molecular target: T1, recombinant human biotinylated …
Experiment: SPR, Biacore T200; biotinylated mesothelin ECD on streptavidin chip, scFv injected; steady state affinity model
Method: as §1

Row | Binder | Kd [nM]
5 | M21 scFv (human anti-mesothelin scFv, soluble, His-tagged) (scFv, also called MM21; ZS95-03QD) scFv: QVQLVQSWAEVKKPGASVKVSCKASGYTFTSYYMHWVRQAPGQGLEWMGIINPSGGSTSYAQKFQGRVTMTRDTSTSTVYMELSNLRSEDTAVYYCARSPRVTTGYFDYWGQGTLVTVSSGGGGSGGGGSGGGGSGGGGSDIQLTQSPSTLSASVGDRVTITCRASQSISSWLAWYQQKPGKAPKLLIYKASSLESGVPSRFSGSGSGTEFTLTISSLQPDDFATYYCQQYSSYPLTFGGGTRLEIKGSHHHHHHHH | 110
6 | M12 scFv (human anti-mesothelin scFv, soluble, His-tagged) (scFv, also called DE12-14RD) scFv: QVQLVQSGAEVKKPGASVKVSCKASGYTFTGYYMHWVRQAPGQGLEWMGRINPNSGGTNYAQKFQGRVTMTTDTSTSTAYMELRSLRSDDTAVYYCARTTTSYAFDIWGQGTMVTVSSGGGGSGGGGSGGGGSGGGGSDIQLTQSPSTLSASVGDRVTITCRASQSISTWLAWYQQKPGKAPNLLIYKASTLESGVPSRFSGSGSGTEFTLTISSLQPDDFATYYCQQYNTYSPYTFGQGTKLEIKGSHHHHHHHH | 307
7 | M11 scFv (human anti-mesothelin scFv, soluble, His-tagged) (scFv, also called NE10-19WD) scFv: QVQLQQSGAEVKKPGASVKVSCKASGYTFTGYYMHWVRQAPGQGLEWMGWINPNSGGTNYAQNFQGRVTMTRDTSISTAYMELRRLRSDDTAVYYCASGWDFDYWGQGTLVTVSSGGGGSGGGGSGGGGSGGGGSDIRMTQSPSSLSASVGDRVTITCRASQSIRYYLSWYQQKPGKAPKLLIYTASILQNGVPSRFSGSGSGTDFTLTISSLQPEDFATYYCLQTYTTPDFGPGTKVEIKGSHHHHHHHH | 64.7
8 | M23 scFv (human anti-mesothelin scFv, soluble, His-tagged) (scFv, also called XH66-84HE) scFv: QVQLQQSGAEVKKPGASVKVSCKASGYTFTNYYMHWVRQAPGQGLEWMGIINPSGGYTTYAQKFQGRLTMTRDTSTSTVYMELSSLRSEDTAVYYCARIRSCGGDCYYFDNWGQGTLVTVSSGGGGSGGGGSGGGGSGGGGSDIQLTQSPSTLSASVGDRVTITCRASENVNIWLAWYQQKPGKAPKLLIYKSSSLASGVPSRFSGSGSGAEFTLTISSLQPDDFATYYCQQYQSYPLTFGGGTKVDIKGSHHHHHHHH | 114

Molecular target: T2, Glycosylation Deficient Mesothelin (296-588; N388Q, N496Q, N523Q) (human)
T2 construct: It already carries N388Q, N496Q and N523Q; also called hMSLN296-588; human mesothelin(296-588)
T2 chain: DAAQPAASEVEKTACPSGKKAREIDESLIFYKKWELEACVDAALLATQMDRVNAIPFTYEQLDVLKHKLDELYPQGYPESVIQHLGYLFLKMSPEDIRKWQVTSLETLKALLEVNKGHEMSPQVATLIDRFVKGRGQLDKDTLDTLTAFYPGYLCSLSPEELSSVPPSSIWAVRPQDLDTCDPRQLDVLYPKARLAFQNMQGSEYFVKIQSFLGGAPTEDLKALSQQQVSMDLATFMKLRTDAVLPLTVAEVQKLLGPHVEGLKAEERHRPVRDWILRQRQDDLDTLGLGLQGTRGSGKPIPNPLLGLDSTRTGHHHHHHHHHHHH
Experiment: Hydrogen-deuterium exchange mass spectrometry: difference in deuterium uptake of the co-expressed complex against unbound mesothelin, peptides 456-586
Method: For hMSLN₂₉₆₋₅₈₈ deuterium labeling experiments in the absence of antibody, 400 pmol of hMSLN₂₉₆₋₅₈₈, volume of 6.9 was diluted using 100 μl of the deuterium buffer for 15 minutes at 4° C. The labeling reaction was then quenched with 100 μl of chilled quench buffer at 2° C. for three minutes followed by injected onto the LC-MS system for automated pepsin digestion and peptide analysis.
The labeling reaction was then quenched with 100 μl of chilled quench buffer at 2° C. for three minutes followed by injected onto the LC-MS system for automated pepsin digestion and peptide analysis. […] The labeling reaction was then quenched with 100 μl of chilled quench buffer at 2° C. for three minutes, and then injected onto the LC-MS system for automated pepsin digestion and peptide analysis.
All deuterium exchange experiments were quenched using 0.5 M TCEP and 3 M urea (pH=2.6). After quenching, the exchanged antigen was subjected to on-line pepsin digestion using a Poroszyme Immobilized Pepsin column (2.1×30 mm) at 12° C. followed by trapping on a Waters Vanguard HSS T3 trapping column.

Row | Binder | binding result
9 | M5 scFv (human anti-mesothelin scFv, soluble, His-tagged) (scFv, also called scFv M5; XP31-20LC) scFv: QVQLVQSGAEVEKPGASVKVSCKASGYTFTDYYMHWVRQAPGQGLEWMGWINPNSGGTNYAQKFQGRVTMTRDTSISTAYMELSRLRSDDTAVYYCASGWDFDYWGQGTLVTVSSGGGGSGGGGSGGGGSGGGGSDIVMTQSPSSLSASVGDRVTITCRASQSIRYYLSWYQQKPGKAPKLLIYTASILQNGVPSRFSGSGSGTDFTLTISSLQPEDFATYYCLQTYTTPDFGPGTKVEIKGSHHHHHHHH | binds
